In PMC6947831, “Mitochondrial localization of Dictyostelium discoideum dUTPase mediated by its N-terminus” (BMC Research Notes, 2020):

B1: core D. discoideum dUTPase (Dictyostelium discoideum) (protein)
chain: FKVKKLSDKAIIPQRGSKGAAGYDLSSAHELVVPAHGKALAMTDLQIAIPDGTYGRIAPRSGLAWKNFIDCGAGVIDSDYRGNVGVVLFNHSDVDFKVAVGDRVAQLIFERIVTPEPLEVDEIDETQRGAGGFGSTGVKVQN
notes: core lacking residues 1-37, N-terminal GSHM from cloning, E. coli, His-tag removed, homotrimer
B2: full-length D. discoideum dUTPase (Dictyostelium discoideum) (protein)
chain: MPIEQKYFSLFSNLFKRLTTNNNNNNYLKMAPPNFETFKVKKLSDKAIIPQRGSKGAAGYDLSSAHELVVPAHGKALAMTDLQIAIPDGTYGRIAPRSGLAWKNFIDCGAGVIDSDYRGNVGVVLFNHSDVDFKVAVGDRVAQLIFERIVTPEPLEVDEIDETQRGAGGFGSTGVKVQN

Experiments:
[1] = substrate: O=c1ccn([C@H]2C[C@H](O)[C@@H](COP(=O)(O)OP(=O)(O)OP(=O)(O)O)O2)c(=O)[nH]1; assay: stopped-flow absorbance, proton release with cresol red; format: biochemical, Dictyostelium discoideum; settings: enzyme 0.15 µM
From the text: stopped-flow absorbance, proton release with cresol red on core D. discoideum dUTPase

[2] = substrate: O=c1ccn([C@H]2C[C@H](O)[C@@H](COP(=O)(O)OP(=O)(O)OP(=O)(O)O)O2)c(=O)[nH]1; assay: as above; format: biochemical, Dictyostelium discoideum; settings: enzyme 0.15 µM; remark: listed apart in the source
From the text: stopped-flow absorbance, proton release with cresol red on full-length D. discoideum dUTPase

Protein | Km [1] [µM] | Vmax [1] [µM/min] | kcat [1] [s⁻¹] | kcat/Km [1] [M⁻¹ s⁻¹] | Km [2] [µM] | Vmax [2] [µM/min]
B1 | 0.5 ± 0.1 | 84 | 9.3 | 1.86e+07 | – | –
B2 | – | – | – | – | 1.0 ± 0.2 | 30
